Laboratory results as given in patent US20230272029A1, “CO-AGONISTS AT GLP-1 AND GIP RECEPTORS SUITABLE FOR ORAL DELIVERY” (Novo Nordisk A/S, priority 2020, published 2023).
Starred links: 1 amine or outer side, 2 acyl side, 3 side chain; linkers in the order of their positions; H or OH if unused. Non-standard residues stand in square brackets, D forms with d. Groups on a side chain read outwards from the residue. No end group written: not given here. *: point of attachment. C18 diacid = O=C(O)CCCCCCCCCCCCCCCCC(=O)*; γGlu = O=C(O)[C@H](CCC(=O)[*:2])N[*:1]; εLys = N[C@@H](CCCCN[*:1])C(=O)[*:2]; AEEA = NCCOCCOCC(=O)O; Aib = CC(C)(N)C(=O)O

T1: human GIP receptor (human, UniProt P48546 22-466)
T1 sequence (looked up): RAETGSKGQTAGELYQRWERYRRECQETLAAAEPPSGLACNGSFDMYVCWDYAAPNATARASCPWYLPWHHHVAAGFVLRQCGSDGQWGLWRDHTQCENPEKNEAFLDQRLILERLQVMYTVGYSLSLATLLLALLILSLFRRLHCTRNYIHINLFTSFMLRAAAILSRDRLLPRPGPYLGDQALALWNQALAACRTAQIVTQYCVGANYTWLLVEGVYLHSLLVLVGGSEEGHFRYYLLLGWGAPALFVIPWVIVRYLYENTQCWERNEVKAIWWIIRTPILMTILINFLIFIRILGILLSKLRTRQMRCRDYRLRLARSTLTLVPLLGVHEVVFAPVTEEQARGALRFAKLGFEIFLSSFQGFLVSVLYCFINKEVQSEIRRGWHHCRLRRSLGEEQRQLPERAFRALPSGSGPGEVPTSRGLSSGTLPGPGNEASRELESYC


Key:
human GLP-1 receptor = human GLP-1 receptor (human, UniProt P43220 24-463); assay: cell-based or functional assay
human GIP receptor = molecular target: T1, human GIP receptor; assay: cell-based or functional assay

Binder | hGLP-1R, CRE Luc 0% HSA EC50 (pM) (human GLP-1 receptor) | hGLP-1R, CRE Luc 1% HSA EC50 (pM) (human GLP-1 receptor) | hGIPR, CRE Luc 0% HSA EC50 (pM) (human GIP receptor) | hGIPR, CRE Luc 1% HSA EC50 (pM) (human GIP receptor)
Y[Aib]EGTFTSDYSIYLEK([εLys-εLys-γGlu-C18 diacid])QAAREFINWLLAGGPSSGAPPPS-OH (N-terminus assumed; SMILES CC[C@H](C)[C@H](NC(=O)[C@H](Cc1ccccc1)NC(=O)[C@H](CCC(=O)O)NC(=O)[C@H](CCCNC(=N)N)NC(=O)[C@H](C)NC(=O)[C@H](C)NC(=O)[C@H](CCC(N)=O)NC(=O)[C@H](CCCCNC(=O)[C@@H](N)CCCCNC(=O)[C@@H](N)CCCCNC(=O)CC[C@H](NC(=O)CCCCCCCCCCCCCCCCC(=O)O)C(=O)O)NC(=O)[C@H](CCC(=O)O)NC(=O)[C@H](CC(C)C)NC(=O)[C@H](Cc1ccc(O)cc1)NC(=O)[C@@H](NC(=O)[C@H](CO)NC(=O)[C@H](Cc1ccc(O)cc1)NC(=O)[C@H](CC(=O)O)NC(=O)[C@H](CO)NC(=O)[C@@H](NC(=O)[C@H](Cc1ccccc1)NC(=O)[C@@H](NC(=O)CNC(=O)[C@H](CCC(=O)O)NC(=O)C(C)(C)NC(=O)[C@@H](N)Cc1ccc(O)cc1)[C@@H](C)O)[C@@H](C)O)[C@@H](C)CC)C(=O)N[C@@H](CC(N)=O)C(=O)N[C@@H](Cc1c[nH]c2ccccc12)C(=O)N[C@@H](CC(C)C)C(=O)N[C@@H](CC(C)C)C(=O)N[C@@H](C)C(=O)NCC(=O)NCC(=O)N1CCC[C@H]1C(=O)N[C@@H](CO)C(=O)N[C@@H](CO)C(=O)NCC(=O)N[C@@H](C)C(=O)N1CCC[C@H]1C(=O)N1CCC[C@H]1C(=O)N1CCC[C@H]1C(=O)N[C@@H](CO)C(=O)O) [Compound No. 11] | 3.3 pM | 132 pM | 9.9 pM | 450 pM
Y[Aib]EGTFTSDYSIYLEK([εLys-εLys-γGlu-C18 diacid])QAAREFIEWLLRGGPSSGAPPPS-OH (N-terminus assumed; SMILES CC[C@H](C)[C@H](NC(=O)[C@H](Cc1ccccc1)NC(=O)[C@H](CCC(=O)O)NC(=O)[C@H](CCCNC(=N)N)NC(=O)[C@H](C)NC(=O)[C@H](C)NC(=O)[C@H](CCC(N)=O)NC(=O)[C@H](CCCCNC(=O)[C@@H](N)CCCCNC(=O)[C@@H](N)CCCCNC(=O)CC[C@H](NC(=O)CCCCCCCCCCCCCCCCC(=O)O)C(=O)O)NC(=O)[C@H](CCC(=O)O)NC(=O)[C@H](CC(C)C)NC(=O)[C@H](Cc1ccc(O)cc1)NC(=O)[C@@H](NC(=O)[C@H](CO)NC(=O)[C@H](Cc1ccc(O)cc1)NC(=O)[C@H](CC(=O)O)NC(=O)[C@H](CO)NC(=O)[C@@H](NC(=O)[C@H](Cc1ccccc1)NC(=O)[C@@H](NC(=O)CNC(=O)[C@H](CCC(=O)O)NC(=O)C(C)(C)NC(=O)[C@@H](N)Cc1ccc(O)cc1)[C@@H](C)O)[C@@H](C)O)[C@@H](C)CC)C(=O)N[C@@H](CCC(=O)O)C(=O)N[C@@H](Cc1c[nH]c2ccccc12)C(=O)N[C@@H](CC(C)C)C(=O)N[C@@H](CC(C)C)C(=O)N[C@@H](CCCNC(=N)N)C(=O)NCC(=O)NCC(=O)N1CCC[C@H]1C(=O)N[C@@H](CO)C(=O)N[C@@H](CO)C(=O)NCC(=O)N[C@@H](C)C(=O)N1CCC[C@H]1C(=O)N1CCC[C@H]1C(=O)N1CCC[C@H]1C(=O)N[C@@H](CO)C(=O)O) [Compound No. 12] | 4 pM | 54.4 pM | 9 pM | 71.5 pM
Y[Aib]EGTFTSDYSIYLEK([AEEA-AEEA-γGlu-C18 diacid])QAAREFIEWLLAGGPSSGAPPPS-OH (N-terminus assumed; SMILES CC[C@H](C)[C@H](NC(=O)[C@H](Cc1ccccc1)NC(=O)[C@H](CCC(=O)O)NC(=O)[C@H](CCCNC(=N)N)NC(=O)[C@H](C)NC(=O)[C@H](C)NC(=O)[C@H](CCC(N)=O)NC(=O)[C@H](CCCCNC(=O)COCCOCCNC(=O)COCCOCCNC(=O)CC[C@H](NC(=O)CCCCCCCCCCCCCCCCC(=O)O)C(=O)O)NC(=O)[C@H](CCC(=O)O)NC(=O)[C@H](CC(C)C)NC(=O)[C@H](Cc1ccc(O)cc1)NC(=O)[C@@H](NC(=O)[C@H](CO)NC(=O)[C@H](Cc1ccc(O)cc1)NC(=O)[C@H](CC(=O)O)NC(=O)[C@H](CO)NC(=O)[C@@H](NC(=O)[C@H](Cc1ccccc1)NC(=O)[C@@H](NC(=O)CNC(=O)[C@H](CCC(=O)O)NC(=O)C(C)(C)NC(=O)[C@@H](N)Cc1ccc(O)cc1)[C@@H](C)O)[C@@H](C)O)[C@@H](C)CC)C(=O)N[C@@H](CCC(=O)O)C(=O)N[C@@H](Cc1c[nH]c2ccccc12)C(=O)N[C@@H](CC(C)C)C(=O)N[C@@H](CC(C)C)C(=O)N[C@@H](C)C(=O)NCC(=O)NCC(=O)N1CCC[C@H]1C(=O)N[C@@H](CO)C(=O)N[C@@H](CO)C(=O)NCC(=O)N[C@@H](C)C(=O)N1CCC[C@H]1C(=O)N1CCC[C@H]1C(=O)N1CCC[C@H]1C(=O)N[C@@H](CO)C(=O)O) [Compound No. 10] | 3.9 pM | 940 pM | – | 1750 pM
